# B1: ATXN2 peptide 913-928 (Ataxin-2), 16-mer library wild type / PABPC1 PABC (PABPC1 PABC domain, residues 544-623) (parent complex)
# chain 1: TLNPNAKEFNPRSFSQ
# chain 2: PLTASMLASAPPQEQKQMLGERLFPLIQAMHPTLAGKITGMLLEIDNSELLHMLESPESLRSKVDEAVAVLQAHQAKEAA
# Variants of: B1
# Test: proteomic peptide phage display deep mutational scan (ProP-PD DMS): M13 P8 16-mer library selected against immobilised GST-tagged bait for four days (rounds), NGS of the eluted pools per day and pseudo-replica; bait immobilised on MaxiSorp plates (10 µg), library pre-cleared on GST, 2 h binding at 4 °C, five washes; one round per day, days 1-4; value from days 2 and 3
row,Variant,screen value
1,chain 1 DLNPNAKEFNPRSFSQ [chain 1 T1D],"0.00327 average fractional NGS count over selection days 2 and 3 (reads of this peptide / all reads for the bait, averaged over …"
2,chain 1 NLNPNAKEFNPRSFSQ [chain 1 T1N],"0.000793 average fractional NGS count over selection days 2 and 3 (reads of this peptide / all reads for the bait, averaged over …"
3,chain 1 ILNPNAKEFNPRSFSQ [chain 1 T1I],"0.000134 average fractional NGS count over selection days 2 and 3 (reads of this peptide / all reads for the bait, averaged over …"
4,chain 1 RLNPNAKEFNPRSFSQ [chain 1 T1R],"0.00254 average fractional NGS count over selection days 2 and 3 (reads of this peptide / all reads for the bait, averaged over …"
5,chain 1 TLNPNAKEWNPRSFSQ [chain 1 F9W],"0.00363 average fractional NGS count over selection days 2 and 3 (reads of this peptide / all reads for the bait, averaged over …"
6,chain 1 TLNPNAKQFNPRSFSQ [chain 1 E8Q],"0.000543 average fractional NGS count over selection days 2 and 3 (reads of this peptide / all reads for the bait, averaged over …"
7,chain 1 TLNPNAKTFNPRSFSQ [chain 1 E8T],"0.00103 average fractional NGS count over selection days 2 and 3 (reads of this peptide / all reads for the bait, averaged over …"
8,chain 1 TLNPNAKVFNPRSFSQ [chain 1 E8V],"0.00108 average fractional NGS count over selection days 2 and 3 (reads of this peptide / all reads for the bait, averaged over …"
9,chain 1 TLNPNAKHFNPRSFSQ [chain 1 E8H],"0.00041 average fractional NGS count over selection days 2 and 3 (reads of this peptide / all reads for the bait, averaged over …"
10,chain 1 TLNPNAKSFNPRSFSQ [chain 1 E8S],"0.00107 average fractional NGS count over selection days 2 and 3 (reads of this peptide / all reads for the bait, averaged over …"
11,chain 1 TLNPNAKMFNPRSFSQ [chain 1 E8M],"0.00043 average fractional NGS count over selection days 2 and 3 (reads of this peptide / all reads for the bait, averaged over …"
12,chain 1 TLNPNAKYFNPRSFSQ [chain 1 E8Y],"0.000547 average fractional NGS count over selection days 2 and 3 (reads of this peptide / all reads for the bait, averaged over …"
13,chain 1 TLNVNAKEFNPRSFSQ [chain 1 P4V],"0.00399 average fractional NGS count over selection days 2 and 3 (reads of this peptide / all reads for the bait, averaged over …"
14,chain 1 TLNHNAKEFNPRSFSQ [chain 1 P4H],"0.000277 average fractional NGS count over selection days 2 and 3 (reads of this peptide / all reads for the bait, averaged over …"
15,chain 1 TFNPNAKEFNPRSFSQ [chain 1 L2F],"0.000314 average fractional NGS count over selection days 2 and 3 (reads of this peptide / all reads for the bait, averaged over …"
16,chain 1 TYNPNAKEFNPRSFSQ [chain 1 L2Y],"0.000336 average fractional NGS count over selection days 2 and 3 (reads of this peptide / all reads for the bait, averaged over …"
17,chain 1 TWNPNAKEFNPRSFSQ [chain 1 L2W],"0.000443 average fractional NGS count over selection days 2 and 3 (reads of this peptide / all reads for the bait, averaged over …"
18,chain 1 TMNPNAKEFNPRSFSQ [chain 1 L2M],"0.000384 average fractional NGS count over selection days 2 and 3 (reads of this peptide / all reads for the bait, averaged over …"
19,chain 1 TLNPNAKEFNPQSFSQ [chain 1 R12Q],"0.000478 average fractional NGS count over selection days 2 and 3 (reads of this peptide / all reads for the bait, averaged over …"

row,Variant,screen value
1,chain 1 TLNPNAKEFNPFSFSQ [chain 1 R12F],"0.000951 average fractional NGS count over selection days 2 and 3 (reads of this peptide / all reads for the bait, averaged over …"
2,chain 1 TLNPNAKEFNPGSFSQ [chain 1 R12G],"0.000653 average fractional NGS count over selection days 2 and 3 (reads of this peptide / all reads for the bait, averaged over …"
3,chain 1 TLNPNAKEFNPTSFSQ [chain 1 R12T],"0.00189 average fractional NGS count over selection days 2 and 3 (reads of this peptide / all reads for the bait, averaged over …"
4,chain 1 TLNPNAKEFNPVSFSQ [chain 1 R12V],"0.00419 average fractional NGS count over selection days 2 and 3 (reads of this peptide / all reads for the bait, averaged over …"
5,chain 1 TLNPNAKEFNPESFSQ [chain 1 R12E],"0.000493 average fractional NGS count over selection days 2 and 3 (reads of this peptide / all reads for the bait, averaged over …"
6,chain 1 TLNPNAKEFNPDSFSQ [chain 1 R12D],"0.00156 average fractional NGS count over selection days 2 and 3 (reads of this peptide / all reads for the bait, averaged over …"
7,chain 1 TLNPNAKEFNPLSFSQ [chain 1 R12L],"0.000524 average fractional NGS count over selection days 2 and 3 (reads of this peptide / all reads for the bait, averaged over …"
8,chain 1 TLNPNAKEFNPISFSQ [chain 1 R12I],"0.00122 average fractional NGS count over selection days 2 and 3 (reads of this peptide / all reads for the bait, averaged over …"
9,chain 1 TLNPNAKEFHPRSFSQ [chain 1 N10H],"0.000309 average fractional NGS count over selection days 2 and 3 (reads of this peptide / all reads for the bait, averaged over …"
10,chain 1 TLNPNAKEFSPRSFSQ [chain 1 N10S],"0.000422 average fractional NGS count over selection days 2 and 3 (reads of this peptide / all reads for the bait, averaged over …"
11,chain 1 TLNPNAKEFWPRSFSQ [chain 1 N10W],"0.000811 average fractional NGS count over selection days 2 and 3 (reads of this peptide / all reads for the bait, averaged over …"
12,chain 1 TLNPNAKEFTPRSFSQ [chain 1 N10T],"0.00052 average fractional NGS count over selection days 2 and 3 (reads of this peptide / all reads for the bait, averaged over …"
13,chain 1 TLNPNAKEFQPRSFSQ [chain 1 N10Q],"0.00128 average fractional NGS count over selection days 2 and 3 (reads of this peptide / all reads for the bait, averaged over …"
14,chain 1 TLNPNAKEFLPRSFSQ [chain 1 N10L],"0.00266 average fractional NGS count over selection days 2 and 3 (reads of this peptide / all reads for the bait, averaged over …"
15,chain 1 TLNPVAKEFNPRSFSQ [chain 1 N5V],"0.0117 average fractional NGS count over selection days 2 and 3 (reads of this peptide / all reads for the bait, averaged over …"
16,chain 1 TLNPDAKEFNPRSFSQ [chain 1 N5D],"0.00049 average fractional NGS count over selection days 2 and 3 (reads of this peptide / all reads for the bait, averaged over …"
17,chain 1 TLNPIAKEFNPRSFSQ [chain 1 N5I],"0.00126 average fractional NGS count over selection days 2 and 3 (reads of this peptide / all reads for the bait, averaged over …"
18,chain 1 TLNPGAKEFNPRSFSQ [chain 1 N5G],"0.00173 average fractional NGS count over selection days 2 and 3 (reads of this peptide / all reads for the bait, averaged over …"
19,chain 1 TLNPAAKEFNPRSFSQ [chain 1 N5A],"0.00056 average fractional NGS count over selection days 2 and 3 (reads of this peptide / all reads for the bait, averaged over …"

row,Variant,screen value
1,chain 1 TLNPMAKEFNPRSFSQ [chain 1 N5M],"0.0888 average fractional NGS count over selection days 2 and 3 (reads of this peptide / all reads for the bait, averaged over …"
2,chain 1 TLNPNAKEFNPRSFAQ [chain 1 S15A],"0.000937 average fractional NGS count over selection days 2 and 3 (reads of this peptide / all reads for the bait, averaged over …"
3,chain 1 TLNPNAKEFNPRSFGQ [chain 1 S15G],"0.00895 average fractional NGS count over selection days 2 and 3 (reads of this peptide / all reads for the bait, averaged over …"
4,chain 1 TLNPNAKEFNPRSFRQ [chain 1 S15R],"0.000394 average fractional NGS count over selection days 2 and 3 (reads of this peptide / all reads for the bait, averaged over …"
5,chain 1 TLNPNAKEFNPRSFWQ [chain 1 S15W],"0.00221 average fractional NGS count over selection days 2 and 3 (reads of this peptide / all reads for the bait, averaged over …"
6,chain 1 TLNPNAKEFNPRSFFQ [chain 1 S15F],"0.000374 average fractional NGS count over selection days 2 and 3 (reads of this peptide / all reads for the bait, averaged over …"
7,chain 1 TLNPNAKEFNPRSFQQ [chain 1 S15Q],"0.000598 average fractional NGS count over selection days 2 and 3 (reads of this peptide / all reads for the bait, averaged over …"
8,chain 1 TLNPNAKEFNPRSFMQ [chain 1 S15M],"0.00397 average fractional NGS count over selection days 2 and 3 (reads of this peptide / all reads for the bait, averaged over …"
9,chain 1 TLNPNAKEFNPRSFDQ [chain 1 S15D],"0.000508 average fractional NGS count over selection days 2 and 3 (reads of this peptide / all reads for the bait, averaged over …"
10,chain 1 TLNPNAHEFNPRSFSQ [chain 1 K7H],"0.0027 average fractional NGS count over selection days 2 and 3 (reads of this peptide / all reads for the bait, averaged over …"
11,chain 1 TLNPNAWEFNPRSFSQ [chain 1 K7W],"0.00309 average fractional NGS count over selection days 2 and 3 (reads of this peptide / all reads for the bait, averaged over …"
12,chain 1 TLNPNAGEFNPRSFSQ [chain 1 K7G],"0.00102 average fractional NGS count over selection days 2 and 3 (reads of this peptide / all reads for the bait, averaged over …"
13,chain 1 TLNPNAQEFNPRSFSQ [chain 1 K7Q],"0.000831 average fractional NGS count over selection days 2 and 3 (reads of this peptide / all reads for the bait, averaged over …"
14,chain 1 TLNPNAYEFNPRSFSQ [chain 1 K7Y],"0.0438 average fractional NGS count over selection days 2 and 3 (reads of this peptide / all reads for the bait, averaged over …"
15,chain 1 TLNPNSKEFNPRSFSQ [chain 1 A6S],"0.000246 average fractional NGS count over selection days 2 and 3 (reads of this peptide / all reads for the bait, averaged over …"
16,chain 1 TLNPNAKEFNPRSESQ [chain 1 F14E],"0.000387 average fractional NGS count over selection days 2 and 3 (reads of this peptide / all reads for the bait, averaged over …"
17,chain 1 TLNPNAKEFNPRSPSQ [chain 1 F14P],"0.00134 average fractional NGS count over selection days 2 and 3 (reads of this peptide / all reads for the bait, averaged over …"
18,chain 1 TLNPNAKEFNPRSNSQ [chain 1 F14N],"0.00127 average fractional NGS count over selection days 2 and 3 (reads of this peptide / all reads for the bait, averaged over …"
